This note sets out measurements from patent US20240117019A1.

In general, EC50 (read off the curve) refers to the concentration at which the effect is half-maximal. What is called EC50 is the concentration at which the effect is half-maximal.

Assay [1] addresses PhtD, serotype 2 (Streptococcus pneumoniae). The assay is described as follows: flow cytometry on whole bacteria, serotype 2, mAb 10 µg/ml, APC anti-human IgG Fc; no mAb 0.6. For orientation: In flow cytometry, cells or beads pass a laser one at a time.
The target of assay [2] is PhtD 1-343 (Streptococcus pneumoniae). The assay is described as follows: ELISA on coated MBP-PhtD fragment, OD405. On the technique in general: An ELISA detects its analyte on a solid surface through an enzyme-linked reagent.
Assay [3] concerns the target PhtD 1-170 (Streptococcus pneumoniae). The assay is described as follows: ELISA on coated MBP-PhtD fragment, OD405.
Assay [4] addresses PhtD 168-343 (Streptococcus pneumoniae). Kind of assay: ELISA on coated MBP-PhtD fragment, OD405.
The target in assay [5] is PhtD, serotype 11A (Streptococcus pneumoniae). Kind of assay: flow cytometry on whole bacteria, serotype 11A, mAb 10 µg/ml, APC anti-human IgG Fc; no mAb 0.6.
Assay [6] addresses PhtD, serotype 6C (Streptococcus pneumoniae). Kind of assay: flow cytometry on whole bacteria, serotype 6c, mAb 10 µg/ml, APC anti-human IgG Fc; no mAb 1.3.
Assay [7] concerns the target recombinant His-tagged full-length pneumococcal histidine triad protein D (PhtD) from strain TCH8431 (serotype 19A) (Streptococcus pneumoniae strain TCH8431 (serotype 19A)). Kind of assay: competitive BLI, His-tagged PhtD on anti-penta-HIS tips; first mAb PhtD8, then second mAb, each 100 µg/mL; white cell.
For assay [8] the target is unchanged. The assay is described as follows: ELISA on coated recombinant PhtD, non-linear regression fit.
Assay [9] shares this target. The assay is described as follows: competitive BLI, His-tagged PhtD on anti-penta-HIS tips; first mAb PhtD3, then second mAb, each 100 µg/mL; black cell.
Assay [10] has as its target PhtD, serotype 9N (Streptococcus pneumoniae). Kind of assay: flow cytometry on whole bacteria, serotype 9N, mAb 10 µg/ml, APC anti-human IgG Fc; no mAb 1.5.
Assay [11] deals with recombinant His-tagged full-length pneumococcal histidine triad protein D (PhtD) from strain TCH8431 (serotype 19A) (Streptococcus pneumoniae strain TCH8431 (serotype 19A)). The assay is described as follows: competitive BLI, His-tagged PhtD on anti-penta-HIS tips; first mAb PhtD6, then second mAb, each 100 µg/mL; grey cell.
In assay [12] the target is PhtD protein of pneumococcal strain TCH8431 (serotype 19A), native, in bacterial lysates (Streptococcus pneumoniae strain TCH8431 (serotype 19A)). Kind of assay: flow cytometry on whole bacteria, 19A (TCH8431), mAb 10 µg/ml, APC anti-human IgG Fc; no mAb 0.4.
Assay [13] addresses recombinant His-tagged full-length pneumococcal histidine triad protein D (PhtD) from strain TCH8431 (serotype 19A) (Streptococcus pneumoniae strain TCH8431 (serotype 19A)). Kind of assay: ELISA on coated recombinant PhtD, OD405.
The target of assay [14] is PhtD, serotype 12F (Streptococcus pneumoniae). The assay is described as follows: flow cytometry on whole bacteria, serotype 12F, mAb 10 µg/ml, APC anti-human IgG Fc; no mAb 0.3.
The target of assay [15] is recombinant His-tagged full-length pneumococcal histidine triad protein D (PhtD) from strain TCH8431 (serotype 19A) (Streptococcus pneumoniae strain TCH8431 (serotype 19A)). Kind of assay: competitive BLI, His-tagged PhtD on anti-penta-HIS tips; first mAb PhtD7, then second mAb, each 100 µg/mL; white cell.
Assay [16] deals with PhtD, WU2 (3) (Streptococcus pneumoniae). Kind of assay: flow cytometry on whole bacteria, 3 (WU2), mAb 10 µg/ml, APC anti-human IgG Fc; no mAb 1.3.
For assay [17], the target named is PhtD, serotype 6D (Streptococcus pneumoniae). The assay is described as follows: flow cytometry on whole bacteria, serotype 6d, mAb 10 µg/ml, APC anti-human IgG Fc; no mAb 0.4.
Assay [18] addresses PhtD protein of pneumococcal strain TIGR4 (serotype 4), native, in bacterial lysates (Streptococcus pneumoniae strain TIGR4 (serotype 4)). Kind of assay: flow cytometry on whole bacteria, 4 (TIGR4), mAb 10 µg/ml, APC anti-human IgG Fc; no mAb 0.1.

B1: human monoclonal antibody PhtD3 (antibody, V domains shown)
VH: QVQLVQSGPDVKKPGSSVKVSCKASGAAFESFAFAWVRQAPGQGFEWMGRIIPILETRDYAEKFQGRMTMTTDESTATAYMELNSLRFEDTAVYFCARDGHIMRTTLSDAALDVWGQGTTVIVSS
VL: DIVMTQSPVTLSLSPGERATLSCRASQSLTDNYLAWYQQKPGQAPRLLIYAASTRATGIPDRISGSGSGTDFTLTISRVEPEDFAMFYCQQYQNSPFTFGGGTTVEIK
On to B1, for which the % APC+ was found to be 3.2% in assay [1]; 19.6% in [5]; 4.2% in assay [6]; 28.1% in [10]; 18.3% in assay [12]; 45.8% in assay [14]. The figures for the % APC+ in assay [16], in assay [17] and in assay [18] were 16%, 2.4% and 7.2%, respectively. Moreover, the concentration for a half-maximal effect (EC50 (read off the curve)) in assay [2], in assay [3], in assay [4] and in [13] was 0.1 µg/mL in each case. For the same molecule, the percent binding of the second mAb in the presence of the first mAb in [7] turned out to be 77%; in assay [9] it was 9%; in [11], 47%; in assay [15], 81%. In [8], the EC50 worked out at 0.045 µg/mL.

B2: PhtD3-IgG2a (recombinant chimera of mAb PhtD3 with a mouse IgG2a Fc region) (antibody, V domains shown)
VH: B1 VH
VL: B1 VL
B2: the 50% effective concentration (EC50 (read off the curve)) in assay [13] is 0.05 µg/mL.
